Data on three sequences can be found in the Immune Epitope Database (IEDB).

In one test the target is HLA-A*30:01. The test is described as follows: IEDB peptide-MHC binding, purified MHC/competitive/fluorescence; filed as Kd, often an IC50 or EC50 that approximates it; ≥ and ≤ were set here for values at or beyond the usual limits of such assays. The note with it: source organism: Vaccinia virus Copenhagen.
Another test deals with HLA-B*08:01. The test is described as above. Particulars: source organism: Vaccinia virus Copenhagen.
Another test addresses HLA-A*02:03. Described as above. The note with it: source organism: Vaccinia virus Copenhagen.
The target of the next test is HLA-B*07:02. The test is described as above. The note with it: source organism: Vaccinia virus Copenhagen.
The target in a further test is HLA-A*11:01. The test is described as above. The note with it: source organism: Vaccinia virus Copenhagen.
The target in the next test is HLA-B*15:17. Description: IEDB peptide-MHC binding, purified MHC/direct/fluorescence; filed as Kd, often an IC50 or EC50 that approximates it; ≥ and ≤ were set here for values at or beyond the usual limits of such assays. Particulars: source organism: Camelpox virus M-96.
The target in the next test is HLA-A*26:03. The test is described as above. Particulars: source organism: Variola virus.
For the next test, the target named is HLA-A*68:02. The description is as above. The note with it: source organism: Camelpox virus M-96.
The target of another test is HLA-B*08:03. Described as above. The note with it: source organism: Variola virus.
In the next test the target is HLA-A*69:01. The test is described as above. The note with it: source organism: Camelpox virus M-96.
Test [1] has as its target HLA-A*02:01. The description is as above. The note with it: source organism: Camelpox virus M-96.
The next test has as its target HLA-B*48:01. Described as above. Particulars: source organism: Camelpox virus M-96.
The target in test [2] is HLA-B*57:01. The test is described as above. The note with it: source organism: Camelpox virus M-96.
A further test concerns the target HLA-A*01:01. Described as above. Particulars: source organism: Camelpox virus M-96.
For test [3], the target named is HLA-B*15:01. The description is as above. Particulars: source organism: Camelpox virus M-96.
A further test addresses HLA-B*18:01. Described as above. The note with it: source organism: Camelpox virus M-96.
The next test addresses HLA-B*27:05. The description is as above. The note with it: source organism: Camelpox virus M-96.
The target of test [4] is HLA-B*58:01. The description is as above. Particulars: source organism: Camelpox virus M-96.
For another test, the target named is HLA-B*15:02. The test is described as follows: IEDB peptide-MHC binding, purified MHC/competitive/fluorescence; filed as Kd, often an IC50 or EC50 that approximates it; ≥ and ≤ were set here for values at or beyond the usual limits of such assays. The note with it: source organism: Homo sapiens.
A further test addresses HLA-B*46:01. Described as above. The note with it: source organism: Homo sapiens.
The target in a further test is HLA-A*02:07. Description: IEDB peptide-MHC binding, purified MHC/competitive/radioactivity; filed as Kd, often an IC50 or EC50 that approximates it; ≥ and ≤ were set here for values at or beyond the usual limits of such assays. The note with it: source organism: Homo sapiens.
Test [5] concerns the target HLA-A*02:01. The test is described as above. The note with it: source organism: Homo sapiens.
Test [6] has as its target HLA-B*57:01. Described as above. The note with it: source organism: Homo sapiens.
Another test has as its target HLA-A*29:02. The test is described as above. Particulars: source organism: Homo sapiens.
Test [7] deals with HLA-B*58:01. The description is as above. Particulars: source organism: Homo sapiens.
For the next test, the target named is HLA-B*45:06. Description: IEDB peptide-MHC binding, purified MHC/competitive/fluorescence; filed as Kd, often an IC50 or EC50 that approximates it; ≥ and ≤ were set here for values at or beyond the usual limits of such assays. The note with it: source organism: Yersinia pestis Nepal516.
The target of a further test is HLA-B*83:01. The test is described as above. Particulars: source organism: Yersinia pestis Nepal516.
Another test addresses HLA-B*27:20. The test is described as above. The note with it: source organism: Yersinia pestis Nepal516.
Test [8] concerns the target HLA-A*02:01. Described as above. Particulars: source organism: Yersinia pestis Nepal516.
The next test has as its target HLA-B*15:42. The test is described as above. The note with it: source organism: Yersinia pestis Nepal516.
The target in another test is HLA-A*26:01. The description is as above. The note with it: source organism: Yersinia pestis Nepal516.
In another test the target is HLA-B*40:13. Described as above. Particulars: source organism: Yersinia pestis Nepal516.
Test [9] deals with HLA-B*15:01. The test is described as above. Particulars: source organism: Yersinia pestis Nepal516.
The next test addresses HLA-A*32:15. The test is described as above. The note with it: source organism: Yersinia pestis Nepal516.
Another test deals with HLA-C*06:02. The test is described as above. Particulars: source organism: Yersinia pestis Nepal516.
For test [10], the target named is HLA-B*58:01. Described as above. Particulars: source organism: Yersinia pestis Nepal516.
For a further test, the target named is HLA-C*15:02. Description: IEDB peptide-MHC binding, purified MHC/direct/fluorescence; filed as Kd, often an IC50 or EC50 that approximates it; ≥ and ≤ were set here for values at or beyond the usual limits of such assays. Particulars: source organism: Yersinia pestis Nepal516.
Another test deals with HLA-C*14:02. Described as above. The note with it: source organism: Yersinia pestis Nepal516.

pKd: −log10 of the molar value.

With NRLKPRDFK, the negative logarithm of the Kd (pKd) is not above 4.70 in the test with HLA-A*30:01; 5.52 in the test with HLA-B*08:01; not above 4.70 with HLA-A*02:03; 5.52 with HLA-B*07:02; not above 4.70 in the test with HLA-A*11:01; not above 4.70 in the test with HLA-B*15:17. In addition, the negative-log Kd (pKd) with HLA-A*26:03, with HLA-A*68:02, with HLA-B*08:03, with HLA-A*69:01, with HLA-A*02:01 [1] and in the test with HLA-B*48:01 was not above 4.70 in each case. The pKd with HLA-B*57:01 [2] is not above 4.70; with HLA-A*01:01, not above 4.70; in the test with HLA-B*15:01 [3], not above 4.70; with HLA-B*18:01, not above 4.70; with HLA-B*27:05, 5.75; with HLA-B*58:01 [4], not above 4.70.

Regarding FAFVTDNTY, the pKd was 8.59 with HLA-B*15:02; 7.88 in the test with HLA-B*46:01; not above 4.11 in the test with HLA-A*02:07; not above 4.11 in the test with HLA-A*02:01 [5]; 6.97 with HLA-B*57:01 [6]; 7.36 with HLA-A*29:02. In addition, the pKd in the test with HLA-B*58:01 [7] is 7.08.

In the case of YMYDFILRF, the pKd with HLA-B*45:06 is not above 5.30; with HLA-B*83:01, not above 5.30; with HLA-B*27:20, 7.20; in the test with HLA-A*02:01 [8] it was 7.80; with HLA-B*15:42 it was not above 5.30; with HLA-A*26:01, not above 4.70. The negative-log Kd (pKd) with HLA-B*40:13 is 6.80; with HLA-B*15:01 [9] it was 5.63; with HLA-A*32:15, 6.04; with HLA-C*06:02, 5.93; with HLA-B*58:01 [10] it was not above 4.70; with HLA-C*15:02, not above 4.70. Besides, the negative logarithm of the Kd (pKd) with HLA-C*14:02 was 5.39.

What is called pKd is the negative decadic logarithm of the Kd, by convention in mol/L.
